Source: patent US11466067B2 (priority 2019, dated 2022)

Experiments:
[1] = Single oral capsule dose in NHP: plasma total IL-10; type: in vivo, Macaca fascicularis
Source text: IL-10 delivery constructs (SEQ ID NO: 5) and caffeine were filled by weight into size-1 Capsugel V-Cap Hydroxypropyl Methylcellulose (HPMC) capsules, for oral administration. The capsules were then successively coated in a pan spray coater with three layers of polymers. The first and third layer were thin coatings of HPMC, the first to seal the crease where the capsule shells come together, and the third to minimize sticking of the capsules to each other. The second coating layer was comprised of a 50:50 mixture of Eudragit® (Evonik Industries AG) enteric acrylic polymers FS 30 D and L 30 D-55, designed to dissolve and allow the capsule to open at pH 6.5.
The MSD Small Spot IL-10 plate was washed 3 times with PBST before use. Standards were prepared in Diluent 2 (MSD Cat No R51BB), and samples diluted 2-fold in Diluent 2. Standards and diluted samples were added to the assay plate and the plate incubated for 2 hours at room temperature with shaking. The plate was washed 3 times with PBST and 1×SULFO TAG anti-huIL-10. Antibody was added to the plate before incubation for 1 hour at room temperature with shaking. Following a wash step, 2×MSD Read buffer was added to the wells of the plate and the plate is read in the MSD Sector Imager 600 plate reader. The lower limit of detection of each analyte is defined as 2.5 standard deviation above background.
Plasma samples were analyzed for Total IL-10, IL-1Ra, caffeine content and a panel of proinflammatory cytokines. Assay LLOQs were: total IL-10=0.3 pg/mL; IL-1Ra=78 pg/mL; and caffeine=[…]. Plasma concentration of IL-10 can refer to the concentration in plasma of both naturally occurring IL-10 and IL-10 appended to a carrier (for example, IL-10 in an IL-10 delivery construct described herein).
IL-10 delivery construct dosing at multiple fixed doses in non-naïve adult male Macaca fascicularis was conducted by Valley Biosystems (West Sacramento, Calif.). […] Dosing groups are described in TABLE 45.
Animals were fasted until after the 3 hour blood sample collection, when food was given. For dosing, the animals were manually restrained and a bite block placed between the jaws. A pill gun containing the dosing capsule was inserted into the back of the oral cavity and the capsule released. Up to 4 capsules were administered consecutively and a small amount of water given to induce swallowing. Once the administration of the dose was confirmed, the bite block was removed and the head released.
Blood samples were collected in K2EDTA tubes from each animal pre-dose and at 0.5, 1, 2, 3, 4, 5, 6, 7, 8, and 24 hours post-dose. Animals were returned to home cages following the 2-hour sample collection. Following physical restraint, blood samples were collected via direct venous puncture using a cephalic, femoral or saphenous vein, which were processed to plasma and stored frozen at −60° C. until shipment.

colonic tissue = test: Pan-colonic administration in NHP: colonic tissue IL-10, IL-1Ra, pSTAT3, cytokines; type: in vivo, cynomolgus monkeys
Method: IL-10 delivery construct solution (at concentrations of 0.1, 0.3 and 1.0 mg/mL for the low, mid and high-dose groups respectively) was administered via the rectal route using sigmoidoscopy and a syringe connected to a spray nozzle with a 360° spray pattern. Serial biopsy samples were collected by sigmoidoscopy (pre-dose, 0.25, 0.5, 0.75, 8 and 24-28 hours post dose). Serial plasma samples from 0 min pre-dose to between 24-28 hours post-dose were collected for analysis for the IL-10 delivery construct.
Phosphorylation of STAT3 is an early downstream event following IL-10 receptor activation.
Colonic biopsies at each tissue timepoint were analyzed for local concentration of IL-10 delivery construct, total IL-10, IL-1Ra, soluble cytokines, activation of STAT3 and gene expression following administration of the IL-10 delivery construct. […] In addition, STC1, MTNR1A and VNN2 encode proteins that suppress the […] signaling pathway, a pathway through which key pro-inflammatory cytokines are regulated. […] This is consistent with the ability of IL-10 to suppress these cells' activation or differentiation towards a pro-inflammatory immune phenotype.

STAT3, IL-1Ra = test: pSTAT3/STAT3 and systemic IL-1Ra in non-inflamed mice (ELISA MSD); type: in vivo
[2] = PK/PD by oral, subcutaneous, intravenous route in NHP; type: in vivo, Macaca fascicularis
Source text: For oral administration the IL-10 delivery construct was formulated in size 0 enteric coated capsules. For intravenous or subcutaneous administration it was formulated as a liquid in DS lyo formulation.

[3] = Intracolonic spray in NHP: IL-1Ra, pSTAT3, construct, IL-10; type: in vivo, cynomolgus monkeys
Source text: This was achieved using a colonoscope with an associated spray nozzle. In this way, refined information for onset and duration of IL-1Ra induction could be obtained at specific local doses. […] The variability of pSTAT3/total STAT3 detected was consistent with tissue capture and stability challenges in this in vivo model. Measurement of tissue delivery construct levels had similar tissue capture and stability challenges, showing low and variable amounts in the tissue samples collected (FIG. 143). […] Since IL-10 can induce cells to produce more IL-10, we also looked for induced IL-10. […] It is important to note, due to the similarity of human and NHP IL-10, that ELISA values shown could also include hIL-10 that has somehow separated from the carrier domain of the delivery construct molecule. While this cannot be ruled out, no other data supports this as an outcome and it appears likely that the majority, if not all, tissue and serum IL-10 measured represents an NHP source.

[4] = 0.3 mg/mL, 5 h
circulating cytokines = conditions: 8.45 mg/kg, Luminex

B1: IL-10 delivery construct: recombinant homodimeric fusion protein: N-terminal methionine, cholix386 domain, polyGlySer spacer, recombinant human IL-10 (protein)
chain: MVEEALNIFDECRSPCSLTPEPGKPIQSKLSIPSDVVLDEGVLYYSMTINDEQNDIKDEDKGESIITIGEFATVRATRHYVNQDAPFGVIHLDITTENGTKTYSYNRKEGEFAINWLVPIGEDSPASIKISVDELDQQRNIIEVPKLYSIDLDNQTLEQWKTQGNVSFSVTRPEHNIAISWPSVSYKAAQKEGSRHKRWAHWHTGLALCWLVPMDAIYNYITQQNCTLGDNWFGGSYETVAGTPKVITVKQGIEQKPVEQRIHFSKGNAMSALAAHRVCGVPLETLARSRKPRDLTDDLSCAYQAQNIVSLFVATRILFSHLDSVFTLNLDEQEPEVAERLSDLRRINENNPGMVTQVLTVARQIYNDYVTHHPGLTPEQTSAGAQAGGGGSGGGGSGGGGSPGQGTQSENSCTHFPGNLPNMLRDLRDAFSRVKTFFQMKDQLDNLLLKESLLEDFKGYLGCQALSEMIQFYLEEVMPQAENQDPDIKAHVNSLGENLKTLRLRLRRCHRFLPCENKSKAVEQVKNAFNKLQEKGIYKAMSEFDIFINYIEAYMTMKIRN
modifications: homodimer
plasma total IL-10 Tmax ([1]; 1 mg): 4 h | plasma total IL-10 Tmax ([1]; 4 mg): 3 h | plasma total IL-10 Tmax ([1]; 20.5 mg): 2 hours post dose | plasma total IL-10 Tmax ([1]; 82 mg): 2 hours post dose | plasma total IL-10 Cmax ([1]; 82 mg (4×20.5 mg capsules), oral): 1.34 pg/mL | total IL-10 in colonic tissue (colonic tissue; 1, 3, 10 mg): dose-dependent increase | colonic tissue pSTAT3/STAT3 (colonic tissue; all doses tested): Higher ratios | increase in ratio of pSTAT3 to total STAT3 (STAT3, IL-1Ra; construct 1 mg/kg, rhIL-10 0.9 mg/kg (equimolar), non-inflamed colon tissue): approximately 50% | increase of systemic IL-1Ra (STAT3, IL-1Ra; construct 10 mg/kg, rhIL-10 3 mg/kg (equimolar)): about 3 fold | systemic IL-10 after oral vs subcutaneous or intravenous administration ([2]; oral 1 mg or 5 mgs): minimal systemic levels of IL-10 | IL-1Ra/IL-10 ratio ([2]; subcutaneous 0.2 mg/kg or intravenous 0.05 mg/kg): minimal effect | serum levels of the delivery construct ([3]; cynomolgus monkey, in vivo): below the assay detection limit | tissue IL-10 levels ([3]; within 15 min): dose-dependent and transient increases | solution stability in PBS at 37 °C [4]: significant degradation | solution stability in PBS at RT [4]: stable | reduction of plasma IL-6 vs Vehicle (circulating cytokines): 33% | reduction of plasma IL-23 vs Vehicle (circulating cytokines): 73%
